We go through 1 molecule from PMC2935574 (The Journal of Cell Biology, 2010).

The target in the test is T1, MIS12 complex (full-length MIS12C) (human, UniProt Q9H081 1-205; Q6P1K2 1-205; Q9H410 1-356; Q96IY1 1-281).
T1 sequence (looked up) 1: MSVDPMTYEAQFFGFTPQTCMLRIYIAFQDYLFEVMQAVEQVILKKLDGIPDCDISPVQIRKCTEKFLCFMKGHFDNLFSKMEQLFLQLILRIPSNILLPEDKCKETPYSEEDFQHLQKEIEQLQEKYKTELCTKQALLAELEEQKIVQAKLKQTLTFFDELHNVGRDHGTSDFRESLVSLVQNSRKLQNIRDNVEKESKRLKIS
T1 sequence (looked up) 2: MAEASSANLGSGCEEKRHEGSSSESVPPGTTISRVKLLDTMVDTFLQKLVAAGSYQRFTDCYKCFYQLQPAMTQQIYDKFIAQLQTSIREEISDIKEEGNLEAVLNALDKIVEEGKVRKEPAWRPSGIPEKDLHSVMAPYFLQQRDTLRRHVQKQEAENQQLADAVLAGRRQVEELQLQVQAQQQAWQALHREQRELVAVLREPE
T1 sequence (looked up) 3: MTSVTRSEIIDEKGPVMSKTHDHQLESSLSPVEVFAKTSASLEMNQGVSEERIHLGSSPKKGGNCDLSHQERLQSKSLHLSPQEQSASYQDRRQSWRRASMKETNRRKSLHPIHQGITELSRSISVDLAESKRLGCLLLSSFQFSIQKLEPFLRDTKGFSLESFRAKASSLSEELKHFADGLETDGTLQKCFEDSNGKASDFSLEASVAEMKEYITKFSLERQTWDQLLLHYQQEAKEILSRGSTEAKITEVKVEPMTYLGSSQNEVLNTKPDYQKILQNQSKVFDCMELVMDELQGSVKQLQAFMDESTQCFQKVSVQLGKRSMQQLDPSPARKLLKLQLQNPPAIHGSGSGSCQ
T1 sequence (looked up) 4: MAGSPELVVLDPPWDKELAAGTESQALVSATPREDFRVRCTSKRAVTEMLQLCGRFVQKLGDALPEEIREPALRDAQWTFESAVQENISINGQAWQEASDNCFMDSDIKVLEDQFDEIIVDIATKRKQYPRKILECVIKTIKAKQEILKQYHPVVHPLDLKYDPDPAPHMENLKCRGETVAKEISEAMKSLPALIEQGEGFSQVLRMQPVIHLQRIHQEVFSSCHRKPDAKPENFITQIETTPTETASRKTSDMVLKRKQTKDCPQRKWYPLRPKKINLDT
As to the kind of experiment: pull-down.

B1: GST-KNL1^1904–2316 (domain or fragment, human, UniProt Q8NG31-2 1904-2316, looked up)
chain: EDLMLSQYVYRPKIQIYREDCEARRQKIEELKLSASNQDKLLVDINKNLWEKMRHCSDKELKAFGIYLNKIKSCFTKMTKVFTHQGKVALYGKLVQSAQNEREKLQIKIDEMDKILKKIDNCLTEMETETKNLEDEEKNNPVEEWDSEMRAAEKELEQLKTEEEELQRNLLELEVQKEQTLAQIDFMQKQRNRTEELLDQLSLSEWDVVEWSDDQAVFTFVYDTIQLTITFEESVVGFPFLDKRYRKIVDVNFQSLLDEDQAPPSSLLVHKLIFQYVEEKESWKKTCTTQHQLPKMLEEFSLVVHHCRLLGEEIEYLKRWGPNYNLMNIDINNNELRLLFSSSAAFAKFEITLFLSAYYPSVPLPSTIQNHVGNTSQDDIATILSKVPLENNYLKNVVKQIYQDLFQDCHFYH
As to B1, the binding result is listed as “binds”.
